Our source for the fold reduction of affinity against the unphosphorylated BAD BH3 peptide values is patent US7193044.

Non-standard residues stand in square brackets, D forms with d. No end group written: not given here. pS = N[C@@H](COP(=O)(O)O)C(=O)O

The assay concerns the target Recombinant Bcl-XL tagged with the glutathione S-transferase (GST) moiety [GST: P08515]. Put plainly: competition ELISA: peptide against immobilised BAK BH3 peptide for GST-Bcl-XL. A general note: ELISA stands for enzyme-linked immunosorbent assay.

Sequence of Recombinant Bcl-XL tagged with the glutathione S-transferase (GST) moiety [GST: P08515] (Q07817 whole entry): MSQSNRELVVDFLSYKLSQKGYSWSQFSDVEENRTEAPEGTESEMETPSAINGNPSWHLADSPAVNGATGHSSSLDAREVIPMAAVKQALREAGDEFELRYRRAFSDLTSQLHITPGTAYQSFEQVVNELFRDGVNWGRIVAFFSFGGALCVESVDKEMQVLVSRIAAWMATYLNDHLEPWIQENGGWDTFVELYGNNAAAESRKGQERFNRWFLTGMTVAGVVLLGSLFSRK

With AAQRYGRELRRM[pS]DEFEGSFKGLPRP [Synthetic BAD BH3 peptide (residues 143-168) phosphorylated on Ser155], the fold reduction of affinity against the unphosphorylated BAD BH3 peptide was greater than 100 fold.
